Test results: paper PMC6900781, “Reconstituting Drosophila Centromere Identity in Human Cells” (Cell Reports, 2019)

B1: recombinant His-dCENP-C(1264-1411) (domain or fragment, Drosophila melanogaster, UniProt Q9VHP9 1264-1411, looked up)
chain: GPVVFSTPLRDEQEEASTKLMQWLRGVGDAPPSASMSDENASVSSANELIFCQVDGIDYAFYNTKEKAMLGYMRFKPYQKRSMKQAKVHPLKLLVQFGEFNVETLAVGEEKEVHSVLRVGDMIEIDRGTRYSIQNAIDKVSVLMCIRS
notes: dimer by SEC-MALS; source: recombinant, T7-promoter vector; not shown: His, N-terminal, kept

Columns and labels:
[1] = target: the molecule itself; experiment: SEC-MALS; recombinant proteins; Superdex 200 10/300 Increase GL, 50 mM HEPES pH 8.0, 150 or 300 mM NaCl, 1 mM TCEP, 22°C, 100 μl of 1-5 mg/ml
dCENP-A^C-GFP-LacI = target: T1, dCENP-A^C-GFP-LacI (Drosophila melanogaster, UniProt Q9V6Q2 1-202; P02299 116-136); experiment: LacI/LacO tethering and recruitment assay (immunofluorescence); bait fused to GFP-LacI tethered to chromosomal LacO arrays in human U2OS cells; HA- or V5-tagged prey transiently co-expressed; IF 48 h after transfection, prey intensity at the LacO spot or % of cells; no third Drosophila centromere protein co-expressed; details: partners not purified
T1 construct: Drosophila CENP-A, N, L1 and α2 domains, residues 1-202; Drosophila histone H3, C region, residues 116-136; also called dCENP-A^C chimera; source: U2OS-LacO cells, transiently transfected, in cells; not shown: GFP-LacI (LacI lacking 11 C-terminal amino acids), C-terminal, kept
T1 sequence (Q9V6Q2 other isoform, or with tags, fused parts or gaps): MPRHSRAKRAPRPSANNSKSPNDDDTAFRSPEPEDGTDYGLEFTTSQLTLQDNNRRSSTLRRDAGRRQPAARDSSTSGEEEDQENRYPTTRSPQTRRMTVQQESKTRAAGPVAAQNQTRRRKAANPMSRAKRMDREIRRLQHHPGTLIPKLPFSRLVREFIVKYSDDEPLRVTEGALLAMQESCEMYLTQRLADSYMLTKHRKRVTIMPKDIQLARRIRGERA

recombinant CAL1(1-160) = target: T2, recombinant CAL1(1-160) (Drosophila melanogaster, UniProt Q9VEN2 1-160); experiment: SEC-MALS; recombinant proteins; Superdex 200 10/300 Increase GL, 50 mM HEPES pH 8.0, 150 or 300 mM NaCl, 1 mM TCEP, 22°C, 100 μl of 1-5 mg/ml; details: both partners purified
T2 construct: CAL1, residues 1-160; the vector name points to a 3C protease site; monomer by SEC-MALS; also called monomeric N-terminal fragment of CAL1; source: recombinant, T7-promoter vector pEC-K-3C-His-GST
T2 sequence (looked up): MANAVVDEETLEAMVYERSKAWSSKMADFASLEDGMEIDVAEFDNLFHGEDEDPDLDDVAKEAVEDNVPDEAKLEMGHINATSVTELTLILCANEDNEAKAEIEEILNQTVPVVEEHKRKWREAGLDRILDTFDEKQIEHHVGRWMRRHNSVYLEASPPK

recombinant dH4 = target: T3, recombinant dH4 (Drosophila melanogaster, UniProt P84040 1-103); experiment: as above; details: both partners purified
T3 construct: Drosophila histone H4 (dH4); source: recombinant, T7-promoter vector pET3a (from Karolin Luger)

[2] = target: B1; experiment: as above; details: both partners purified
[3] = target: B1; experiment: mass spectrometry (iBAQ peptide intensities) of the complex; ratio of iBAQ intensities of the two fragments within the recombinant His-dCENP-C(1264-1411)/CAL1(841-979) complex; details: both partners purified

In the case of B1, the “stoichiometry N” value [1] is reported as 2.

B2: CAL1-V5 (natural protein, Drosophila melanogaster, UniProt Q9VEN2 1-979, looked up)
chain: MANAVVDEETLEAMVYERSKAWSSKMADFASLEDGMEIDVAEFDNLFHGEDEDPDLDDVAKEAVEDNVPDEAKLEMGHINATSVTELTLILCANEDNEAKAEIEEILNQTVPVVEEHKRKWREAGLDRILDTFDEKQIEHHVGRWMRRHNSVYLEASPPKYLPPHHNSISDESDESMHSIDTARYIQQSRRRNAHMTNKNMTTIKMYRKHSHKRDELRAKYAYGDEQEHRHHMQAVLLRRRERERQLAYLASTPMQCVYSSGHHMRRKNLRKRRINSWMFDSASSSEEDTSFGGCDCHSCRRHYALSRSVYQSCPYGRGQREYHHRQMASRTMHTMRRQHTFDMEMDLRPRLPENECSCCNSDRLCSNVIHIANSSTEEWVVENRSNHLTQETQEKTRKQKHQPMDARKVSHQPVCSKGHEQKPLSSKATSVSKLVLSKEKYMQMFDSESSDEDNALAKKGLLCCSDKKKGMTFPTPNAAGKITHPTSSAKKAIRKEARPNGLAQIQEEGPTATNSPIESTYLPVAHMKSVSIDGSSGTSATFESPAKKAPKRGIRETSPLNGNELQQLISTIPIADEKASSLMEKVDNCIGRESFDDRNKDFMHMENSSTKTAVEKSTKQKRVSGKKSEIPKSIITNNEILEKNSTETLSEKQVAAKAKKQSVRKTGATGKPSTSRLKKSEKTKTTSSVTSTSKLEQVREEESDVSSEVLAKPKPQCSTTASILKQGGDGASNSEDDLQIALAMSKATYKEEQQKRKKTKREPSNKQPQSPAEKSMTVFNNQSVACNSTALANDTACYRVLPKRRGVKRAAAVSTTEEKTATNSSSSPTSSLEEMGSPTGGDPDCTVVTSTTGCEPPASERQEIPATIKITKRGILLHSPSAPEGASFTLTEQGLGKIIGERWARKYLKYHIGSRSFDSRHSVYYQPTPQLAAALSAPQDAQNIGNISGSSASDDDIFEQINRYGTVYSILENNSGDK
notes: CAL1, Drosophila dCENP-A-specific chaperone; also called V5-tagged CAL1; source: U2OS-LacO cells, transiently transfected, in cells; not shown: V5, C-terminal, kept
With B2 the “CAL1 recruitment relative to wild-type dCENP-A” value (dCENP-A^C-GFP-LacI) was 60%.

B3: recombinant dCENP-A(101-225) (domain or fragment, Drosophila melanogaster, UniProt Q9V6Q2 101-225, looked up)
chain: QQESKTRAAGPVAAQNQTRRRKAANPMSRAKRMDREIRRLQHHPGTLIPKLPFSRLVREFIVKYSDDEPLRVTEGALLAMQESCEMYLTQRLADSYMLTKHRNRVTLEVRDMALMAYICDRGRQF
notes: also called dCENP-A lacking the N-terminal tail; source: recombinant, T7-promoter vector pET3a
B3: binds (recombinant CAL1(1-160)); binds (recombinant dH4).

B4: recombinant CAL1(841-979) (domain or fragment, Drosophila melanogaster, UniProt Q9VEN2 841-979, looked up)
chain: GGDPDCTVVTSTTGCEPPASERQEIPATIKITKRGILLHSPSAPEGASFTLTEQGLGKIIGERWARKYLKYHIGSRSFDSRHSVYYQPTPQLAAALSAPQDAQNIGNISGSSASDDDIFEQINRYGTVYSILENNSGDK
notes: also called CAL1 monomer fragment; source: recombinant, vector pEC-K-3C-His-GST
With B4 the “stoichiometry N” value [2] was 0.5 CAL1 chains per dCENP-C chain and the “stoichiometry N” value [3] was ~0.5 CAL1 chains per dCENP-C chain.
